Laboratory results: IntAct's records for PubMed 24316736

B1: Ubiquitin-conjugating enzyme E2 R1 (Homo sapiens), P49427 (parent)
chain: MARPLVPSSQKALLLELKGLQEEPVEGFRVTLVDEGDLYNWEVAIFGPPNTYYEGGYFKARLKFPIDYPYSPPAFRFLTKMWHPNIYETGDVCISILHPPVDDPQSGELPSERWNPTQNVRTILLSVISLLNEPNTFSPANVDASVMYRKWKESKGKDREYTDIIRKQVLGTKVDAERDGVKVPTTLAEYCVKTKAPAPDEGSDLFYDDYYEDGEVEEEADSCFGDDEDDSGTEES

Variants of: B1
Conditions: with rbx1_human RBX1, P62877
Sequence of rbx1_human RBX1, P62877 (P62877 whole entry, looked up): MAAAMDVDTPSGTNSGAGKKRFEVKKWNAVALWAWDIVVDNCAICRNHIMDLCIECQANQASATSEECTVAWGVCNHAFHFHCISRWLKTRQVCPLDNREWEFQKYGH

effect of a mutation on the interaction | Variant
disrupting interaction strength | Y70R
disrupting interaction strength | T117E
